From publication PMC13247719
Changes are numbered by the printed parent chain. Where two headings read alike, the source gives them in different places.

Experiments:
Test in all cases: SPR
LIN28A [1] = biological target: T1, LIN28A (mouse, UniProt Q8K3Y3 1-209)
T1 sequence: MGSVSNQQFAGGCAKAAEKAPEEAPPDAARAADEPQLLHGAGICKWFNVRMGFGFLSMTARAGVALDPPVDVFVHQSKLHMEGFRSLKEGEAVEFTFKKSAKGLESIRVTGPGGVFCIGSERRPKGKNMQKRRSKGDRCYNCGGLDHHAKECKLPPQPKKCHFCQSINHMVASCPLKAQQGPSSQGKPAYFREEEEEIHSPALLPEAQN

LIN28A Y140A = biological target: T2, LIN28A Y140A (mouse, UniProt Q8K3Y3 1-209, Y140A)
T2 sequence: T1 sequence with Y140A

LIN28A CSD = biological target: T3, LIN28A CSD (mouse, UniProt Q8K3Y3 16-136)
T3 sequence: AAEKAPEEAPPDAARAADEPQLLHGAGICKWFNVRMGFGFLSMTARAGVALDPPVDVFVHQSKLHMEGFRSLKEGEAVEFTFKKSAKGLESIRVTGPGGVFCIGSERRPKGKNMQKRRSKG

LIN28A [2] = biological target: T1, LIN28A; remark: listed apart in the source
LIN28A I167A = biological target: T4, LIN28A I167A (mouse, UniProt Q8K3Y3 1-209, I167A)
T4 sequence: T1 sequence with I167A

LIN28A H162A = biological target: T5, LIN28A H162A (mouse, UniProt Q8K3Y3 1-209, H162A)
T5 sequence: T1 sequence with H162A

LIN28A H148A = biological target: T6, LIN28A H148A (mouse, UniProt Q8K3Y3 1-209, H148A)
T6 sequence: T1 sequence with H148A

GGGGUAGUGAUUUUACCCUGUUUAUGAGAU (structured_RNA) [preE-let-7f-1 UGAG]
Kd (LIN28A [1]): 387 nM

GGGGUAGUGAUUUUACCCUGUUUAGGAGAU (structured_RNA) [preE-let-7f-1 biotin]
Kd (LIN28A Y140A): 410 nM
Kd (LIN28A CSD): 808 nM
Kd (LIN28A [2]): 92 nM
Kd (LIN28A I167A): 99.5 nM
Kd (LIN28A H162A): 382 nM
Kd (LIN28A H148A): 276 nM
